Patent US20160289280A1, “Fusion protein of recombinant ganoderma immunoregulatory protein and human serum albumin, preparation method thereof, and application thereof” (priority 2013, published 2016)
Values joined by “and” are separate entries in the source; they are usually repeats but may differ in a detail not shown here. Identical values can stand only once. Marks after values point to notes of the source that are not given here.

B1: rLZ-8: recombinant ganoderma immunoregulatory protein which is not fused, comparator (protein, UniProt P14945 2-111, looked up)
Immunomodulatory protein Ling …: SDTALIFRLAWDVKKLSFDYTPNWGRGNPNNFIDTVTFPKVLTDKAYTYRVAVSGRNLGVKPSYAVESDGSQKVNFLEYNSGYGIADTNTIQVFVVDPDTNNDFIIAQWN
B2: rLZ-8-HSA: fusion protein of ganoderma immunoregulatory protein (LZ-8) and human serum albumin, linker GGGGSS, SEQ ID NO. 1 (protein)
chain: SDTALIFRLAWDVKKLSFDYTPNWGRGNPNNFIDTVTFPKVLTDKAYTYRVAVSGRNLGVKPSYAVESDGSGKVNFLEYNSGYGIADTNTIGVFVVDPDTNNDFIIAGWNGGGGSSMKWVTFISLLFLFSSAYSRGVFRRDAHKSEVAHRFKDLGEENFKALVLIAFAGYLGGCPFEDHVKLVNEVTEFAKTCVADESAENCDKSLHTLFGDKLCTVATLRETYGEMADCCAKGEPERNECFLGHKDDNPNLPRLVRPEVDVMCTAFHDNEETFLKKYLYEIARRHPYFYAPELLFFAKRYKAAFTECCGAADKAACLLPKLDELRDEGKASSAKGRLKCASLGKFGERAFKAWAVARLSGRFPKAEFAEVSKLVTDLTKVHTECCHGDLLECADDRADLAKYICENGDSISSKLKECCEKPLLEKSHCIAEVENDEMPADLPSLAADFVESKDVCKNYAEAKDVFLGMFLYEYARRHPDYSVVLLLRLAKTYETTLEKCCAAADPHECYAKVFDEFKPLVEEPGNLIKGNCELFEGLGEYKFGNALLVRYTKKVPGVSTPTLVEVSRNLGKVGSKCCKHPEAKRMPCAEDYLSVVLNGLCVLHEKTPVSDRVTKCCTESLVNRRPCFSALEVDETYVPKEFNAETFTFHADICTLSEKERGIKKGTALVELVKHKPKATKEGLKAVMDDFAAFVEKCCKADDKETCFAEEGKKLVAASGAALGL
modifications: rLZ-8-HSA sequence

Columns and labels:
[1] = system: mouse transplanted tumor S180; assay: subcutaneous inhibition of mouse transplanted tumor S180; format: in vivo; conditions: tail vein, 10 days
Description: In vivo experiment: experimental material: mice weighing 18-22 g from Laboratory Animal Center of Jilin University; Ehrlich ascites tumor cell strains are provided by a lab of the inventor; cytoxan (CTX) is from Jiangsu Hengrui Medicine Co., Ltd, whose batch number is 06101921; 5180 ascites tumor and soild tumor experimental groups respectively comprises a normal control group, a negative control group, a positive control group, an rLZ-8 low-dosage group (0.25 mg·kg^−1), an rLZ-8 middle-dosage group (0.5 mg·kg^−1), an rLZ-8 high-dosage group (1 mg·kg^−1), an rLZ-8-HSA low-dosage group (0.25 mg·kg^−1), an rLZ-8-HSA middle-dosage group (0.5 mg·kg^−1), and an rLZ-8-HSA high-dosage group (1 mg·kg^−1), wherein dosages of the rLZ-8-HSA groups are judged from LZ-8 dosage, wherein each group comprises 10 mice.
tumor inhibition rate (%)=(average tumor weight of control groups−average tumor weight of experimental groups)/average tumor weight of control groups×100%.

leukocytes = assay: treatment of rat models with leucopenia caused by cyclophosphamide, leukocyte count; format: in vivo; conditions: for leukocyte number before: baseline after CP modeling, before treatment
From the text: Utilizing Wistar rats in the experiments, wherein 18 rats weighing about 100 g are utilized. […] The experiment has an rLZ-8 low-dosage group, an rLZ-8 middle-dosage group, an rLZ-8 high-dosage group, an rLZ-8-HSA low-dosage group, an rLZ-8-HSA middle-dosage group, an rLZ-8-HSA high-dosage group, and a positive medicine control group (utilizing the […]®). […] On the third day, the blood is sampled from the tail vein, and the leukocytes are counted by a cytoanalyzer. After successful modeling, the rats of each the group are respectively treated with the rLZ-8, the three kinds of the fusion proteins, or the positive medicine (the […]®) with the corresponding dosage, and the equal sterile saline is given to the rats of the normal control and a CP group. The blood is sampled from the tail vein on the first, third and seventh treatment days, and the leukocytes are counted by the cytoanalyzer. Medicine efficacy is analyzed according to a number difference of the leukocyte between before and after the treatment.

[2] = system: mouse S180 Ehrlich ascites tumor; assay: in vitro inhibition effect on mouse S180 Ehrlich ascites tumor, WST-1 method; format: cell-based; conditions: 24 h, x ± s, n = 9
Description: In vitro experiment: testing the inhibition effect of the fusion protein rLZ-8-HSA on the mouse 5180 Ehrlich ascites tumor through the WST-1 method, preparing tissue suspension of the mouse S180 Ehrlich ascites tumor; adding 100 μl the tissue suspension into 900 μl 2% glacial acetic acid and counting with a microscope; adjusting a tissue concentration to 2×10^5/ml with DMEM comprising 2% calf serum; respectively preparing the fusion protein rLZ-8-HSA and the rLZ-8 with same molar concentration gradient, wherein there are 3 gradient concentrations, each concentration occupies 9 wells with 100 μl per well; adding tissue suspension with a concentration of 2×10^5/ml with 100 μl per well; shaking for evenly mixing, and then putting into a 37° C., 5% CO2 incubation device to incubate for 24 h; after incubation, adding WST-1 with 20 μl per well; putting into the 37° C., 5% CO2 incubation device to incubate for 3 h, then testing OD450 (with a BIO-RAD); wherein results are listed in table 5.

platelets = assay: treatment of mouse thrombocytopenia caused by cyclophosphamide, platelet count; format: in vivo; conditions: for platelets after: after cyclophosphamide, before treatment; for platelets before: baseline before cyclophosphamide
Description: Experimental medicine: preparing a 19.25 μg·kg^−1 and a 9.625 μg·kg^−1 dosage groups of the recombinant ganoderma immunoregulatory protein (rLZ-8) with sterile injection water, and 0.2 ml per mouse; and preparing a 19.25 μg·kg^−1 and a 9.625 μg·kg^−1 dosage groups (judging from the LZ-8) of the fusion protein rLZ-8-HSA of the recombinant ganoderma immunoregulatory protein.
Positive control medicine: thrombopoietin (THPO) from Shenyang 3SBio Inc., with a dosage of 770 μg·kg^−1/d and 0.2 ml per mouse.
Chemotherapy medicine: cyclophosphamide (Cy) from Jiangsu Hengrui Medicine Co., Ltd, whose batch number is 12112121, 200 mg/bottle; preparing into 100 mg·kg^−1, 0.2 ml per mouse with sterile injection water.
Platelet dilution: urea: 1.3 g; sodium citrate: 0.5 g; formaldehyde: 0.1 ml; adding distilled water to 100 ml for mixing, then filtering for further utilization.
Experimental method: dividing experimental animals into 5 groups, wherein each group comprises 10 mice with 5 males and 5 females; except for a normal control group (injected with normal saline having an equal volume), abdominally injecting the cyclophosphamide to the mice with a dosage of 100 mg·kg^−1, 0.2 ml per mouse per day, and lasting for three days; when a platelet quantity decreased to below 300×10^9/L, subcutaneously injecting the rLZ-8, the fusion protein rLZ-8-HAS (19.25 μg·kg^−1, 9.625 μg·kg^−1, 0.2 ml·per mouse per day) and the positive medicine (THPO 770 μg·kg^−1, 0.2 ml·per mouse per day) according to the above groups with corresponding dosages, and injecting the normal saline having the equal volume to the normal control group and a CP group; respectively sampling mouse tail vein blood 3 d, 7 d and 14 d after treatment, counting platelets with high power lens, wherein results thereof are listed in table 7.

[3] = low-dosage 0.25 mg·kg^−1 (LZ-8)
[4] = middle-dosage 0.5 mg·kg^−1 (LZ-8)
[5] = high-dosage 60 μg/kg (LZ-8 dosage)
[6] = low-dosage 15 μg/kg (LZ-8 dosage)
[7] = middle-dosage 30 μg/kg (LZ-8 dosage)
[8] = 9.625 μg·kg^−1 (LZ-8) subcutaneously per day
[9] = 19.25 μg·kg^−1 (LZ-8) subcutaneously per day

Row | Molecule | Inhibition rate ([1]; high-dosage 1 mg·kg^−1 (LZ-8)) | tumor weight ([1]; high-dosage 1 mg·kg^−1 (LZ-8)) [g] | Inhibition rate [1, 3] | tumor weight [1, 3] [g] | Inhibition rate [1, 4] | tumor weight [1, 4] [g] | leukocyte number on the first treatment day (leukocytes; [5]) [L⁻¹] | leukocyte number on the seventh treatment day (leukocytes; [5]) [L⁻¹] | leukocyte number on the third treatment day (leukocytes; [5]) [L⁻¹] | leukocyte number before (leukocytes; [5]) [L⁻¹] | leukocyte number on the first treatment day (leukocytes; [6]) [L⁻¹] | leukocyte number on the seventh treatment day (leukocytes; [6]) [L⁻¹] | leukocyte number on the third treatment day (leukocytes; [6]) [L⁻¹] | leukocyte number before (leukocytes; [6]) [L⁻¹] | leukocyte number on the first treatment day (leukocytes; [7]) [L⁻¹] | leukocyte number on the seventh treatment day (leukocytes; [7]) [L⁻¹] | leukocyte number on the third treatment day (leukocytes; [7]) [L⁻¹] | leukocyte number before (leukocytes; [7]) [L⁻¹] | OD450, inhibition effect on mouse S180 Ehrlich ascites tumor ([2]; protein 5.0 × 10^−9 mol/L) | OD450, inhibition effect on mouse S180 Ehrlich ascites tumor ([2]; protein 10.0 × 10^−9 mol/L) | also measured
1 | B1 | 45.5% and 43.5% | 0.57 ± 0.03 | 16.8% and 17.8% | 0.83 ± 0.03 | 25.7% and 26.7% | 0.74 ± 0.02 | 5.4e+09 | 1.45e+10 | 9.6e+09 | 4.09e+09 | 4.6e+09 | 1.12e+10 | 9.3e+09 | 3.71e+09 | 5.1e+09 | 1.278e+10 | 9.7e+09 | 3.12e+09 | 0.453 ± 0.23 | 0.366 ± 0.31 | OD450, inhibition effect on mouse S180 Ehrlich ascites tumor ([2]; protein 15.0 × 10^−9 mol/L): 0.345 ± 0.27; platelets 3rd day (platelets; [8]): 483 ± 0.45 *10^9/L; platelets 7th day (platelets; [8]): 585 ± 0.78 *10^9/L; platelets 14th day (platelets; [8]): 898 ± 0.61* *10^9/L; platelets after (platelets; 9.625 μg·kg^−1 group): 201 ± 0.41 *10^9/L; platelets before (platelets; 9.625 μg·kg^−1 group): 839 ± 0.40 *10^9/L; platelets 3rd day (platelets; [9]): 501 ± 0.48 *10^9/L; platelets 7th day (platelets; [9]): 680 ± 0.28 *10^9/L; platelets 14th day (platelets; [9]): 1021 ± 0.31** *10^9/L; platelets after (platelets; 19.25 μg·kg^−1 group): 226 ± 0.78 *10^9/L; platelets before (platelets; 19.25 μg·kg^−1 group): 946 ± 0.45 *10^9/L
2 | B2 | 29.3% | 0.21 ± 0.08 | 27.7% | 0.73 ± 0.03 | 56.4% | 0.44 ± 0.05 | 8.4e+09 | 1.55e+10 | 1.44e+10 | 3.33e+09 | 8.5e+09 | 1.32e+10 | 1.08e+10 | 3.11e+09 | 9.2e+09 | 1.34e+10 | 1.198e+10 | 2.89e+09 | 0.408 ± 0.21 | 0.233 ± 0.18 | leukocyte number relative to the rLZ-8 groups with the same dosage (leukocytes; first treatment day): about 2 times; OD450, inhibition effect on mouse S180 Ehrlich ascites tumor ([2]; protein 15.0 × 10^−9 mol/L): 0.127 ± 0.15; platelets 3rd day (platelets; [8]): 624 ± 0.43* *10^9/L; platelets 7th day (platelets; [8]): 697 ± 0.43* *10^9/L; platelets 14th day (platelets; [8]): 929 ± 0.61** *10^9/L; platelets after (platelets; 9.625 μg·kg^−1 group): 261 ± 0.52 *10^9/L; platelets before (platelets; 9.625 μg·kg^−1 group): 843 ± 0.65 *10^9/L; platelets 3rd day (platelets; [9]): 760 ± 0.38* *10^9/L; platelets 7th day (platelets; [9]): 978 ± 0.67* *10^9/L; platelets 14th day (platelets; [9]): 1035 ± 0.78** *10^9/L; platelets after (platelets; 19.25 μg·kg^−1 group): 246 ± 0.36 *10^9/L; platelets before (platelets; 19.25 μg·kg^−1 group): 852 ± 0.82 *10^9/L; platelet recovery compared with the CP group (platelets; rLZ-8-HSA groups, p<0.05): returned to normal at the third day
